Test results reported in patent US20230052153A1 (NEWSOUTH INNOVATIONS, published 2023).

T1: human FcγRIIa receptor (human, UniProt P12318 34-317)
T1 construct: whole, on cells; also called CD32
T1 sequence (looked up): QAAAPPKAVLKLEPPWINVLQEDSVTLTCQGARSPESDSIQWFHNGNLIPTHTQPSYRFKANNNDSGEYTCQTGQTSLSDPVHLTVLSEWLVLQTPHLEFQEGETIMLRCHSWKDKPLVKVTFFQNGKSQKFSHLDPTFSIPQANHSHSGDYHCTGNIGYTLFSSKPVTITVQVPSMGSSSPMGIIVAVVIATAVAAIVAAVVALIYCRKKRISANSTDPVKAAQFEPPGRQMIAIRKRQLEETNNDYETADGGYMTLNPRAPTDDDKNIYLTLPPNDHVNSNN


Molecular target: T1, human FcγRIIa receptor
Experiment: flow cytometry on human platelets, 2 µM scFv, detected with anti-c-Myc-AF-488
Method: Platelet-rich plasma (PRP) was obtained from whole blood after centrifugation at 200×g for 10 minutes. Washing/Suspension buffer (PBS, 0.5% BSA, 25 mM EDTA, pH 6.8) was used for platelet preparation throughout the experiment. 4 μl of PRP was incubated with HRU molecules (2 μM) for 30 minutes. Cells were washed once with 500 μl of buffer (PBS, 0.5% BSA, 25 mM EDTA, pH 6.8) and incubated with anti-c-Myc-AF-488. After washing, platelets were suspended in 200 μl of PBS and analyzed by flow cytometry (CantoII, BD Biosciences). Anti-c-Myc-AF-488 in the absence of HRU was used as negative control.

Row | binding result | Binder
1 | binds | HRU2 (HRU1 linked to bivalirudin) (scFv, scFv fused to bivalirudin; also called H2) scFv: EVKLVESGPELKKPGETVKISCKASGYTFTNYGMNWVKQAPGKGLKWMGWLNTYTGESIYPDDFKGRFAFSLETSASTAYLQINNLKSEDTATYFCARGDYGYDDPLDYWGQGTSVTVSSGGGGSGGGGSGGGGSDIVMTQAPPSVPVTPGESVSISCRSSKSLLHTNGNTYLHWFLQRPGQSPRLLIYRMSVLASGVPDRFSGSGSGTAFTLSISRVEAEDVGVYYCMQHLEYPLTFGAGTKLEIKRAGGGGSGGGGSGGGGFPRPGGGGNGDFEEIPEEYL
2 | binds | HRU4 (HRU1 with mutations) (scFv, also called H4) scFv: EVQLVESGPELKKPGETVKISCKASGYTFTNYGMNWVKQAPGKGLKWMGWLNTYTGESIYPDDFKGRFAFSLETSASTAYLQINNLKSEDTATYFCARGDYGYDDPLDYWGQGTSVTVSSGGGGSGGGGSGGGGSDIVMTQAPPSVPVTPGESVSISCRSSKSLLHTNGNTYLHWFLQKPGQSPRLLIYRMSVLASGVPDRFSGSGSGTDFTLKISRVEAEDVGVYYCMQHLEYPLTFGAGTKLEIKRAEQKLISEEDL
